Source: the supplement of paper PMC10126150
± gives the standard deviation of the averaged measurements.

Tested on: ATP
Assay: switch fluorescence ratio, 500 uM ATP over buffer (Cy3 cluster intensity, sum of 5 cycles each) (fold (ratio)); higher = stronger signal-on switching upon ATP binding; sequences stand for … in TCGTCGGCAGCGTCAGATGTGTATAAGAGACAGTTTTTTTTTTTTTTTTTTTTTTTTT…TC
Settings: aptamer strand: ATP DNA aptamer (quencher-CACCTGGGGGAGTATTGCGGAGGAAGG + anchor), 100 nM annealed; ATP concentration: 500 uM
How it was run: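 The quencher-labelled ATP aptamer, at 100 nM, was annealed to Cy3-labelled switching-strand clusters on a modified Illumina MiSeq flow-cell. The clusters were imaged in selection buffer, then after 15 min with 500 uM ATP at 22 °C, and this buffer/ATP cycle ran five times with NaOH stripping and re-annealing between runs. Per-cluster fluorescence ratios, summed target-cycle over summed buffer-cycle Cy3 intensity, were averaged per switch-domain sequence. Clusters outside 100-1000 RFU were excluded.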
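Note: ATP exposure 15 min at 22 °C before imaging.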

| Sequence | switch fluorescence ratio |
| --- | --- |
| TCTAAGGGAG | 0.987 ± 0.012 |
| CAGGAGGGGT | 1.03 ± 0.025 |
| GATTTAGCTG | 1 ± 0.035 |
| GCTGGGCTTG | 0.9947 ± 0.0033 |
| TAGATTGGTG | 0.991 ± 0.04 |
| TGGATTTGGA | 0.999 ± 0.02 |
| ATTATGGTGG | 1.16 ± 0.26 |
| GAAATAGTTT | 1.02 ± 0.021 |
| GAAGGGGCCG | 1.12 ± 0.07 |
| AGTCGCCTGG | 1.003 ± 0.002 |
| AAACGGGCAG | 0.985 ± 0.019 |
| CCGCGGGGTG | 2.2 ± 0.77 |
| AATAAATCCT | 1.22 ± 0.021 |
| TTGCACGTTT | 1.27 ± 0.19 |
| TTCTAACTGG | 0.995 ± 0.013 |
| TCTGGGTAAT | 0.996 ± 0.0013 |
| TTCTGTAATT | 1.02 ± 0.018 |
| GACAGGGCGG | 0.983 ± 0.049 |
| ATGTAACTTA | 1.03 ± 0.027 |
| GGCGATTTTG | 0.958 ± 0.03 |
| GAGGGGGTTG | 1.01 ± 0.048 |
| TTGCAAATCG | 1.11 ± 0.18 |
| GATTAACGTT | 0.971 ± 0.036 |

| Sequence | switch fluorescence ratio |
| --- | --- |
| GGGATGGGAC | 1.043 ± 0.0081 |
| GGATGGTGGT | 1.01 ± 0.016 |
| ATTGATGTTT | 1.01 ± 0.024 |
| AGAGTGGGGG | 0.971 ± 0.065 |
| CGGAGGTAGC | 1.03 ± 0.058 |
| GATCTCGTGG | 1.01 ± 0.056 |
| TGTTGTTGAT | 0.985 ± 0.036 |
| TCGATTAATT | 1.1 ± 0.079 |
| TAAAAGAAGA | 0.962 ± 0.016 |
| GGATTCTAAT | 0.982 ± 0.01 |
| AGGCAGGACT | 1.02 ± 0.044 |
| CGGGGGATCA | 1.01 ± 0.049 |
| CCCAATTTTG | 1.05 ± 0.069 |
| GAAATGCTCT | 1.01 ± 0.033 |
| GGTGAGGGCA | 0.99 ± 0.015 |
| GCGAAGACAA | 1.04 ± 0.048 |
| ATTTTAGGCC | 1.1 ± 0.06 |
| ACGTTATTTG | 1.11 ± 0.052 |
| TTCATGAGTT | 1 ± 0.0022 |
| TAAAAAGTGG | 0.976 ± 0.038 |
| GTGTATAGAT | 1.01 ± 0.011 |
| GTTGATTTGG | 0.981 ± 0.015 |
| CCGAAATGGG | 1.5 ± 0.07 |

| Sequence | switch fluorescence ratio |
| --- | --- |
| TGTTAGTTTG | 0.981 ± 0.029 |
| ACGTTAATGC | 2.09 ± 0.21 |
| TTGTGCCCGG | 0.9727 ± 0.009 |
| TGTGGAAAAA | 1.011 ± 0.0081 |
| GATTCGGCTA | 1.02 ± 0.021 |
| TGGGTAACGT | 0.987 ± 0.033 |
| CTGTCGGGTT | 1.03 ± 0.04 |
| TCGGCAGGGG | 1.09 ± 0.035 |
| GGTAGTAGAG | 1.02 ± 0.011 |
| TTGATATATT | 0.981 ± 0.017 |
| ATGGCTTCGT | 1.03 ± 0.021 |
| TCAGGTAATG | 0.98 ± 0.033 |
| GTGACCCGGA | 0.97057 ± 0.00025 |
| GTTTGGAGGC | 1.01 ± 0.016 |
| ACCGTAGGTG | 1.03 ± 0.034 |
| AATGGGTGTG | 1.01 ± 0.023 |
| TAAGAAAAAT | 1.062 ± 0.0081 |
| GGGTTTTGGT | 0.978 ± 0.022 |
| CGATATGTTC | 1.01 ± 0.018 |
| AGGGCTGCGT | 0.984 ± 0.017 |
| GGTTCTATGG | 0.99441 ± 3.1e-05 |
| TAAAAGCTTT | 1.02 ± 0.029 |
| TTCGGATGGC | 1.01 ± 0.084 |

| Sequence | switch fluorescence ratio |
| --- | --- |
| TTTGTCTGTG | 0.983 ± 0.03 |
| TCGGAATCTG | 1 ± 0.1 |
| GTGAGGATTT | 0.986 ± 0.013 |
| TGCTTCTGAA | 0.9635 ± 0.0092 |
| ATAATTCATC | 1 ± 0.013 |
| TTGCCTGAAA | 1 ± 0.019 |
| GGCGGAGGGT | 0.986 ± 0.03 |
| GGGCTGGGTC | 0.98 ± 0.038 |
| AGTTGTGCGT | 0.981 ± 0.012 |
| ATTTCTATCC | 1.09 ± 0.12 |
| GCCTATAACT | 1.016 ± 0.0077 |
| AATTTTAACT | 1.022 ± 0.0064 |
| CCAAAGAGGG | 0.993 ± 0.02 |
| ATGGGTAAGG | 0.983 ± 0.019 |
| TTTGGTGAAC | 1 ± 0.022 |
| GGGATAATTG | 0.978 ± 0.024 |
| TTGTTTAGGG | 0.999 ± 0.049 |
| TCATTGGTTT | 0.998 ± 0.032 |
| AGCGATTCTG | 1.02 ± 0.032 |
| TTGTGCCGGT | 0.988 ± 0.037 |
| GTTTGGGTTA | 1.01 ± 0.016 |
| TTGGGTATAG | 1.02 ± 0.028 |
| AAATCATATT | 0.968 ± 0.0054 |

| Sequence | switch fluorescence ratio |
| --- | --- |
| AGGAATGAGG | 0.958 ± 0.011 |
| CAATGACACT | 1.04 ± 0.044 |
| ATTGACTTTT | 1 ± 0.025 |
| ATTAACTGGG | 1.01 ± 0.023 |
| GTTAATGTCG | 1.056 ± 0.0053 |
| ATTTTATCAG | 1.02 ± 0.018 |
| ATTTCACAAT | 0.9798 ± 0.0028 |
| GACTTTGGGC | 1.01 ± 0.038 |
| AGGGGATGTG | 0.97 ± 0.048 |
| CATATGGGGG | 1.02 ± 0.046 |
| GGATTGTTGG | 1.008 ± 0.0033 |
| GGTGGCTTGC | 1.014 ± 0.0032 |
| CGGGGAGGGG | 0.985 ± 0.028 |
| CGGTAAGGCG | 0.947 ± 0.11 |
| TTGTTGGTGC | 1.09 ± 0.014 |
| GTGGAAGAGT | 0.999 ± 0.018 |
| GAGTGGGGAG | 0.968 ± 0.045 |
| CCTTTATGGC | 0.947 ± 0.029 |
| GATGGTGTGC | 1.15 ± 0.29 |
| ATGGTTGTGC | 0.991 ± 0.026 |
| TGCGGCGCTT | 1.97 ± 1.3 |
| CCTAGGGTTC | 0.984 ± 0.01 |
| ATGTTCGGGC | 1.04 ± 0.035 |

| Sequence | switch fluorescence ratio |
| --- | --- |
| GATTGTAAGA | 1.16 ± 0.2 |
| AAAATGAAAA | 0.987 ± 0.0071 |
| CATTTGGGGG | 0.977 ± 0.025 |
| AATCGATCGG | 1.01 ± 0.028 |
| CGAGCCGAGA | 1.003 ± 0.0095 |
| GAGTGGGGGT | 0.977 ± 0.032 |
| CGGATGTTCA | 1.001 ± 0.0059 |
| ATAACGTTCG | 1.06 ± 0.052 |
| CTGAGCAAG | 2.34 ± 0.28 |
| CTCGTGTTGG | 0.989 ± 0.018 |
| TTTGCACTTT | 1 ± 0.046 |
| GACTAAAGTG | 1.01 ± 0.044 |
| TTCAAGATGG | 0.992 ± 0.046 |
| TGGTTGTCGC | 0.991 ± 0.065 |
| CGTTACGCGC | 1 ± 0.023 |
| GCGATCCCCT | 1.77 ± 0.72 |
| TCCACCGTCG | 1.27 ± 0.065 |
| TTGAACGCGG | 1.05 ± 0.018 |
| ATCTGGGGGA | 0.979 ± 0.046 |
| ATGGTGCGGC | 1.008 ± 0.0018 |
| TGATTCGGTT | 1.037 ± 0.0089 |
| CCAATTGCGC | 1.03 ± 0.031 |
| TGGGTCCGTT | 1.01 ± 0.036 |

| Sequence | switch fluorescence ratio |
| --- | --- |
| AGAAGATCAG | 1.02 ± 0.015 |
| GCTTGCAAAG | 1.007 ± 0.0031 |
| TATGGGGGGT | 0.976 ± 0.017 |
| CGACCACTTT | 1.04 ± 0.025 |
| GTTTATATCC | 1.02 ± 0.013 |
| TCGGCGGACA | 1 ± 0.023 |
| ATCGTTTATT | 0.99436 ± 0.00033 |
| GCCTGGAGTA | 1.03 ± 0.065 |
| GTTTACATTG | 0.985 ± 0.042 |
| TTGCTTGCGT | 1.01 ± 0.03 |
| GTCATTGTAT | 0.966 ± 0.028 |
| AAAGCTTTTC | 1.07 ± 0.01 |
| TTAGTACCCT | 1.06 ± 0.043 |
| GTTTTACGTG | 0.998 ± 0.024 |
| ATTGTTGGTG | 0.986 ± 0.024 |
| CGTAACCTTA | 1.05 ± 0.15 |
| AAGCTCTTGA | 1 ± 0.04 |
| CTTTGTATGT | 0.982 ± 0.029 |
| ATTGGGATCC | 1.02 ± 0.029 |
